Data on one molecule can be found in PMC11805909, “Structural basis of inhibition of human NaV1.8 by the tarantula venom peptide Protoxin-I” (Nature Communications, 2025).

The assay has as its target T1, human NaV1.8 α-subunit (human, UniProt Q9Y5Y9 1-1956, M1713V, N-linked glycosylation modelled at Asn 312, 819, 1312, 1328 and 1336; further sites N284 and N288).
T1 construct: a TEV protease site stands between the N-terminal tags and the channel; No TEV cleavage is described in the purification, so the N-terminal tags were probably still on the protein on the grids; VSDI was not resolved in the maps; also called hNaV1.8; apo-hNaV1.8; source: HEK293 (FreeStyle 293-F), transiently co-transfected with β4; not shown: FLAG, N-terminal, kept
Briefly: cryo-EM structure; 45 µM ProTx-I incubated 30 min on ice with purified hNaV1.8 in GDN micelles (150 mM NaCl, 25 mM HEPES pH 7.5, 0.006% GDN); excess peptide removed on a 100 kDa MWCO filter; monolayer graphene grids. The settings on record: both partners purified.

B1: Protoxin-I (peptide)
peptide: ECRYWLGGCSAGQTCCKHLVCSRRHGWCVWDGTFS
notes: modelled from the NMR ensemble PDB 2M9L; printed residue numbers (R3, W5, L6, S22, R23, W27, V29, W30, D31, G32, F34) count on the peptide; Disulfide-rich (ICK framework); also called ProTx-I; source: bought: Smartox Biotechnology
As for B1, the binding result is reported as “binds”.
